In assay [1] the target is T1, IFNAR1 (Interferon alpha receptor-1) (human, UniProt P17181 28-557).
T1 sequence (looked up): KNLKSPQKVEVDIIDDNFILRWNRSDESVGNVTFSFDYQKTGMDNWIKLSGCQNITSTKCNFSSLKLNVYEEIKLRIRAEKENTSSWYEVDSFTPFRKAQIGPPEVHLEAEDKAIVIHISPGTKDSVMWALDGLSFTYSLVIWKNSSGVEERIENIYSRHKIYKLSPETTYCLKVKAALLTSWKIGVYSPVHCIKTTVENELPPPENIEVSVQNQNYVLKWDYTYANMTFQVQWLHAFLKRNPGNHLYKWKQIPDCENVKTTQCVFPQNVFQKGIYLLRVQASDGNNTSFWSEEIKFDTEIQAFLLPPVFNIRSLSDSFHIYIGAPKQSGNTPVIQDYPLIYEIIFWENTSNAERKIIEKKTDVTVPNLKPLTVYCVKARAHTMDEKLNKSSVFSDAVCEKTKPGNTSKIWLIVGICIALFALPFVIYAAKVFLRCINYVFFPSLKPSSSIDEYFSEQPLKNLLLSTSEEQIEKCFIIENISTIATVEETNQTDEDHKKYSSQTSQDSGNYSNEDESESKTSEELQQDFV
The assay is described as follows: cell-based or functional assay.

Assay [2] deals with T1, IFNAR1 (Interferon alpha receptor-1). Nature of the assay: live-cell confocal fluorescence imaging of IFNAR1-expressing THP-1 cells, 1 µg/mL, stained on ice, FcR blocked. How it is done:
Reaction mixtures were purified from unincorporated fluorescent molecules using size-exclusion mini-columns provided in the kit. IFNAR1-expressing THP-1 cells were maintained in suspension using RPMI growth medium containing 10% FBS, and seeded in a fresh growth medium at 2×10^5 cells/mL overnight prior to the experiments. On the day of experiments, THP-1 cells were washed and resuspended to a concentration of 3×10⁶ cells/mL.
Cell suspensions were first stained for 10-20 min with cytosol dye, CFSE, from Invitrogen (Life Technologies Corp, Carlsbad, Calif.) in a CO₂ incubator at 37° C. Excess CFSE was removed by two washes with 1×PBS. […] Following the removal of unincorporated antibodies by centrifugation, cells were resuspended to initial volumes, and dispensed into the wells of 384-well imaging plates.

B1: MEDI-546 (antibody, human IgG1, V domains shown)
VH: EVQLVQSGAEVKKPGESLKISCKGSGYIFTNYWIAWVRQMPGKCLESMGIIYPGDSDIRYSPSFQGQVTISADKSITTAYLQWSSLKASDTAMYYCARHDIEGFDYWGRGTLVTVSS
VL: EIVLTQSPGTLSLSPGERATLSCRASQSVSSSFFAWYQQKPGQAPRLLIYGASSRATGIPDRLSGSGSGTDFTLTITRLEPEDFAVYYCQQYDSSAITFGQGTRLEIK
For the molecule B1, in assay [1], the “IC50 (nM), bootstrap median” value is 0.772 nM and the “IC50 (nM): Potency, MEDI-546 concentration corresponding to half-maximum inhibition of GS production” value came to 0.978 nM.

B2: MEDI-546-Alexa647 (antibody, human IgG1, V domains shown)
VH: EVQLVQSGAEVKKPGESLKISCKGSGYIFTNYWIAWVRQMPGKCLESMGIIYPGDSDIRYSPSFQGQVTISADKSITTAYLQWSSLKASDTAMYYCARHDIEGFDYWGRGTLVTVSS
VL: EIVLTQSPGTLSLSPGERATLSCRASQSVSSSFFAWYQQKPGQAPRLLIYGASSRATGIPDRLSGSGSGTDFTLTITRLEPEDFAVYYCQQYDSSAITFGQGTRLEIK
modifications: Alexa647 dye conjugated to the antibody (sites and chain not stated)
Turning to B2, the binding result in assay [2] is “binds”.

The values are drawn from patent US20150158949A1 (MEDLMMUNE, published 2015).
